According to patent publication EP2379590B1 (Development Center for Biotechnology, dated 2018):

Assays:
Test in all cases: cell-based or functional assay
[1] = target: glycoprotein D of HSV-1 KOS, on infectious virus (HSV-1 (KOS strain), UniProt A1Z0Q5 26-394)
[2] = target: glycoprotein D of HSV-1 00410 (clinical strain), on infectious virus (HSV-1 (clinical strain 00410))
[3] = target: glycoprotein D of HSV-2 186, on infectious virus (HSV-2 (strain 186))
[4] = target: glycoprotein D of HSV-2 00040 (clinical strain), on infectious virus (HSV-2 (clinical strain 00040))

Sequence of glycoprotein D of HSV-1 KOS, on infectious virus (A1Z0Q5 26-394 limits assumed): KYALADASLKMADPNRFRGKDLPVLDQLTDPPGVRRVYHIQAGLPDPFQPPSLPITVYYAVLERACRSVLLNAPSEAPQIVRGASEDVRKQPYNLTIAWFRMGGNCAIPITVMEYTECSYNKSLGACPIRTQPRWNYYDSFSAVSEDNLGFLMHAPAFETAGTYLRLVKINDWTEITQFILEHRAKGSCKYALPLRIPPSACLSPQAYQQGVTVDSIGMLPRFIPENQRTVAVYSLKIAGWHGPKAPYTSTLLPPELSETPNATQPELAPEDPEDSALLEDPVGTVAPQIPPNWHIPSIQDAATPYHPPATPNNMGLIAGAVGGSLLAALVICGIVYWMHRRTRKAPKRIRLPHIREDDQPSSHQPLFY

B1: scFv E425 (scFv, not shown: small tags and cut ends)
scFv: QVQLQQSGAGVKKPGSSVRVSCSASGGTLRTYALSWVRQVPGQGFEWMGRIIPMFGKTDYAQKFQGRLSITADKSMDTGFMELTSLTSEDTAVYYCARDLTTLTSYNWLDIWGQGTLVTVSSGGGGSGGGGSGGGGSETTLTQSPGTLSLSPGERATLSCRASQSVSSNYLAWYQKKPGQAPRLLIYGASSRATGIPDRFSGSGSGTDFTLTINRLEPEDFAVYYCQQYGRSPTFGQGTKVEIKR
Question: For B1, which “IC50, plaque reduction assay in Vero cells (HSV-1 KOS)” value [1] is on record?
Answer: 2.2 nM

Question: What about the “IC50, plaque reduction assay in Vero cells (HSV-1 00410)” value [2] of the same binder?
Answer: 1.8 nM

Question: And the “IC50, plaque reduction assay in Vero cells (HSV-2 186)” value [3]?
Answer: 4.5 nM

Question: What about the “IC50, plaque reduction assay in Vero cells (HSV-2 00040)” value [4] of the same binder?
Answer: 1.16 nM
